# In patent US20100143379A1 (priority 2005, published 2010):
# B1: MIF: macrophage migration inhibitory factor; recombinant mouse or human MIF purified essentially free of endotoxin (protein)
# chain: PMFIVNTNVPRASVPDGFLSELTQQLAQATGKPPQYIAVHVVPDQLMAFGGSSEPCALCSLHSIGKIGGAQNRSYSKLLCGLLAERLRISPDRVYINYYDMNAANVGWNNSTFA
# Tests used:
# [1] = system: ERK-1/2; assay: MAP kinase phosphorylation in differentiating K562 progenitors (Western blot); assay type: cell-based, human; settings: K562 in differentiation medium
# Experimental: (§1) MIF addition markedly affected these differentiation-associated, MAP kinase responses.
# (§2) Western Blot Analysis. Immunoblotting with antibodies directed against phospho-ERK1/2, total ERK1/2, phospho-JNK1/2, total JNK1/2, phospho-p38, and total p38 was performed according to the manufacturer's instructions (New England Biolabs, Beverly, Mass.). The secondary antibody was an anti-rabbit IgG conjugated to horseradish peroxidase and detection was by chemiluminescence according to the manufacture's instructions (Amersham Pharmacia Biotech, Piscataway, N.J.). For quantitation of signal intensity of phospho-specific kinase results, western blots were scanned using a UMAX, PowerLook IIII scanner and the images were analyzed using UN-SCAN-IT gel Automated Digitizing system software version 5.1 (Silk Scientific Corporation, USA). The ratio between phosphorylated to the total MAP kinase was determined and expressed as a fold-change for each lane (mean±S.E.M for three blots from independent cell cultures). The p values were calculated for each of the time course comparisons (4, 16, 96 hrs) of three different experiments (Student T-test, two-tailed).
# [2] = system: JNK-1/2; assay: as above; assay type: cell-based, human; settings: vs differentiation medium alone; did not reach statistical significance (96 hrs, p<0.06)
# Experimental: as §1, §2
# [3] = system: p38; assay: as above; assay type: cell-based, human; settings: 16 hrs, p<0.01; 96 hrs, p<0.04
# Experimental: as §1, §2
# [4] = system: HIV-1ADA; assay: HIV-1 replication in monocyte-derived macrophage cultures (RT activity); assay type: cell-based; settings: recombinant MIF 50 ng/ml
# Experimental: (§3) Triplicate cultures of monocyte-derived macrophages were infected with HIV-1ADA in the presence of anti-MIF MAb (25 μg/ml) or isotype control. Virus replication was monitored by RT activity in culture supernatants. Results are presented as mean±SD. […] Control cultures were cultivated with PMB mixed with an isotype immunoglobulin with or without MIF.
# as §3, with “To investigate this possibility, HIV-infected macrophages were cultured in the presence of a neutralizing anti-MIF antibody or isotype control. Triplicate” for “Triplicate”, “supernatants.” for “supernatants. Results are presented as mean±SD.”
# [5] = system: R5 (ADA) strain of HIV-1; assay: HIV-1 replication in PHA-activated PBMC cultures (RT activity); assay type: cell-based; settings: 50 ng/ml; p<0.01
# Experimental: (§4) At indicated time points after infection, reverse transcriptase activity was measured in culture supernatants. Results are mean±SD. Whereas differences between MIF-treated and control cultures of ADA-infected PBMCs are highly statistically significant (p<0.01), differences between MIF-treated and control cultures of LAI-infected cells are not significant (p>0.05).
# as §4, with “supernatants.” for “supernatants. Results are mean±SD.”, “(p>0.05) (FIG. 8).” for “(p>0.05).”
# [6] = system: X4 (LAI) strain of HIV-1; assay: as above; assay type: cell-based; settings: 50 ng/ml; p>0.05
# Experimental: as §4
# as §4, with “supernatants.” for “supernatants. Results are mean±SD.”, “(p>0.05) (FIG. 8).” for “(p>0.05).”
# [7] = system: ERK-1/2; assay: ERK-1/2 phosphorylation in COS-7/M6 stable transformants (Western blot); assay type: cell-based; settings: 100 ng/ml
# [8] = system: CD74; assay: CD74 phospho-serine sandwich ELISA; assay type: cell-based; settings: MIF 100 ng/ml, 10 mins; COS-7/CD74+CD44 cell line and wild-type MEFs
# Experimental: (§5) FIGS. 12A-12E show the phosphoserine content of CD74 and CD44 measured by ELISA. […] The ELISA values represent the mean±SD of triplicate measurements. Experiments were replicated twice. *P<0.02 versus corresponding control (Student's T test, two-tailed). […] Cell lysates were prepared and probed for PKA and PKC using phospho-specific, and total anti-PKA and anti-PKC antibodies.
# The observation that the phosphoserine content of CD74 increased only in cells that expressed CD74 and full-length CD44 is consistent with the notion that the MIF-mediated phosphorylation of CD74 is dependent on the activity of the CD44 intracytoplasmic domain.
# (§6) The serine phosphorylation of CD74 and CD44 was quantified by specific sandwich ELISA (Perez et al. (2003). Nature Immunol 4:1083-92). […] After several washes (0.5% Tween-20 in PBS), 0.2 μg/ml anti-phospho-serine antibody (Hypromatrix) conjugated with horseradish peroxidase was added, and immunoreactivity measured by the TMB reagent (DakoCytomation) and the data analyzed with SpectraMax Plus (Molecular Devices).
# Cell lysates were collected and analyzed by immunoblots using a pair of anti-phospho-PICA and anti-(total)-PKA antibodies, a pair of anti-phospho-PKC (all from Cell Signaling) and anti-(total)-PKC (Santa Cruz) antibodies, or a pair of anti-phospho-p56^lck (Cell Signaling) and anti-(total) p56^lck (sc-433, Santa Cruz) antibodies.
# [9] = system: CD44; assay: CD44 phospho-serine sandwich ELISA; assay type: cell-based; settings: MIF 100 ng/ml, 10 mins
# Experimental: as §5
# Ser325 is constitutively phosphorylated in resting cells, but undergoes de-phosphorylation in response to PKC activating stimuli such as phorbol esters. […] The effect of MIF-stimulation CD44 phosphorylation was analyzed in the COS-7 and MEF cell lines by sandwich ELISA using an anti-CD44 capture antibody to quantify CD44 phospho-serine residues (Perez et al. (2003). Nature Immunol. 4:1083-92). […]
# as §6, with “Devices). […]” for “Devices).”
molecule,measurement,setting,value
B1,duration of ERK-1/2 phosphorylation,[1],at least 96 hrs
same,ERK-1/2 phosphorylation,[1]; 16 hrs,phosphorylation was high at 16 hrs
same,JNK-1/2 phosphorylation,[2],appeared to upregulate JNK-1/2 phosphorylation
same,differentiation-associated changes in p38 MAP kinase phosphorylation,[3],reduced
same,HIV-1 replication (RT activity),[4],significantly suppressed replication
same,R5 HIV-1 replication (RT activity),[5],reduced R5 HIV-1 replication
same,X4 HIV-1 replication (RT activity),[6],did not reduce replication
same,time of decay of ERK-1/2 phosphorylation,[7],30 min
same,ERK-1/2 phosphorylation,"[7]; cells transfected with CD74, CD44, CD74+CD44 or CD74+CD44^Δ67",induced ERK-1/2 phosphorylation only in those cells expressing both CD74 and full-length CD44
same,phosphorylation of CD74 (phospho-serine content),[8],increased significantly
same,net content of CD44 serine phosphorylation,[9],did not change
